According to article PMC9019756:

Target: T1, His6-PhoP (Actinosynnema pretiosum X47 (derived from A. pretiosum subsp. auranticum ATCC 31565)) (UniProt A0A290ZEW1)
T1 sequence: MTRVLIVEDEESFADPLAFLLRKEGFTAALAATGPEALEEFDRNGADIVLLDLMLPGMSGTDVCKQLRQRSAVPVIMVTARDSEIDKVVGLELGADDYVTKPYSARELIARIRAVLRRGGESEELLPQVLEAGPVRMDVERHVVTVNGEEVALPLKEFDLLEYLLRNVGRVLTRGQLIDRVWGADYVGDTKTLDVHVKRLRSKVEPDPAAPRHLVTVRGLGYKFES
Assay: EMSA
Conditions: EMSA: 100 fmol biotin probe, binding buffer (composition not given), poly(dI-dC), 20-30 min at room temperature, 8% native PAGE; protein dialyzed in 50 mM …

## GTGACTGGAGTTCCTTACCCCGATCCGGTGACCGGGGCCGGCGGCCCAGCCCCGGTCCCGCGATCCGCGAAAGCAGCCGCGAACCGCCGCTGACCTGGTCGAACGGCCCGCTGGAAGATCGCTTGAGCACCGCCGACGACGAGCGTCGACGCCCCCGCCCCGCAGCGGGCGGGGGCAGTCCCCCGTTGGAGTGCTCAGCTCCCCCCGGCGACGGCCGTACTAGGCGGCGGTCGTGTAGGGAAAGA (double strand) [fliM promoter probe]
  binding: no binding

## GTGACTGGAGTTCCTTTTCGCGCAACAGCCGGTACCGGGTTCAGGTTAAACCGAGCAAGATAGCCCTAGAGGGGACACCAGCGGATACAGAGAGCAACAAAACAGGCACGTACAGAAGTCTTGTTAGCCCAGAAGGGTGATAAACGCCCCGATGTCGAGCGTTCCTCGCCACAGACACGTCACATCTGGCGAACTCGGTCGTTTGCTAGGCCGGGAAGGGAGAAGAGGGTAACGACGAGTCGTGTAGGGAAAGA (double strand) [ssgB promoter probe]
  binding: binds

## TCTTTCCCTACACGACCGGCTTCCGTCCTTGGATGTCGGGCATCGGGCCCGTCCGTGGGTCCGTGGCGTTACAAACGGCAGTGCGCCTTCACTCCTGAGGGGGAACGAAGGGCGGCCAGGGTGGAGAAGGCCCGGCCGCCCGTCACCCGTAAGGAACTCCAGTCAC (double strand) [swrD promoter probe]
  binding: no binding
